Numbered stars: 1 amine (or outer) side, 2 acyl side, 3 side chain; on linkers, the order of the positions; unused ones are H or OH. Square brackets hold non-standard residues; d marks the D form. Side chains are listed from the residue outwards. Ends that are not written are not given here. * marks the point of attachment. C20 diacid = O=C(O)CCCCCCCCCCCCCCCCCCC(=O)*; γGlu = O=C(O)[C@H](CCC(=O)[*:2])N[*:1]; AEEA = NCCOCCOCC(=O)O; Aib = CC(C)(N)C(=O)O
Target: T1, human gastric inhibitory peptide receptor (hGIPR) (Homo sapiens, UniProt P48546)
T1 construct: expressed in transfected cells; host or cells: HEK293
T1 sequence (P48546 22-466): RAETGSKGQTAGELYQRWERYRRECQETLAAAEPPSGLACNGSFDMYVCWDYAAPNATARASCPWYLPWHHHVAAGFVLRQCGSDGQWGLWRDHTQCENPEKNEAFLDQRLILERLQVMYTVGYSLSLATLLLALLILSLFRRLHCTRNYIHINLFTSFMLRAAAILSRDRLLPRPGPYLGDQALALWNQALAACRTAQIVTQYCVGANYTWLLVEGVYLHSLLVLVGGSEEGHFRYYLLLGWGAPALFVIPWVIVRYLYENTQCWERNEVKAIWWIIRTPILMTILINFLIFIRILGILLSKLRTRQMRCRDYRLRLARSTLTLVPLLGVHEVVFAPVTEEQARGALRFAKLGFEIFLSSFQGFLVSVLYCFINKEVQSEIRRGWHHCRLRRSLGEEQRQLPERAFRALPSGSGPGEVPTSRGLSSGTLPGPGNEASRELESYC
Assay: cAMP pharmacological functional assay in presence of 0.1% casein, hGIPR
Assay type: cell-based
Conditions: ratio of hGIPR to hGLP1R cAMP EC50 ratios

| Substance | [hGIPR/hGLP1R] EC50 Ratio |
| --- | --- |
| Y-Aib-EGTFTSDYSILLDK((2-[2-(2-Amino-ethoxy)-ethoxy]-acetyl)2-(γGlu)-CO—(CH2)18—CO2H)IAQ-Aib-AFIEYLIEGGPSSGAPPPS-NH2 (Y[Aib]EGTFTSDYSILLDK([AEEA-AEEA-γGlu-C20 diacid])IAQ[Aib]AFIEYLIEGGPSSGAPPPS-NH2; N-terminus assumed; SMILES CC[C@H](C)[C@H](NC(=O)[C@H](CCCCNC(=O)COCCOCCNC(=O)COCCOCCNC(=O)CC[C@H](NC(=O)CCCCCCCCCCCCCCCCCCC(=O)O)C(=O)O)NC(=O)[C@H](CC(=O)O)NC(=O)[C@H](CC(C)C)NC(=O)[C@H](CC(C)C)NC(=O)[C@@H](NC(=O)[C@H](CO)NC(=O)[C@H](Cc1ccc(O)cc1)NC(=O)[C@H](CC(=O)O)NC(=O)[C@H](CO)NC(=O)[C@@H](NC(=O)[C@H](Cc1ccccc1)NC(=O)[C@@H](NC(=O)CNC(=O)[C@H](CCC(=O)O)NC(=O)C(C)(C)NC(=O)[C@@H](N)Cc1ccc(O)cc1)[C@@H](C)O)[C@@H](C)O)[C@@H](C)CC)C(=O)N[C@@H](C)C(=O)N[C@@H](CCC(N)=O)C(=O)NC(C)(C)C(=O)N[C@@H](C)C(=O)N[C@@H](Cc1ccccc1)C(=O)N[C@H](C(=O)N[C@@H](CCC(=O)O)C(=O)N[C@@H](Cc1ccc(O)cc1)C(=O)N[C@@H](CC(C)C)C(=O)N[C@H](C(=O)N[C@@H](CCC(=O)O)C(=O)NCC(=O)NCC(=O)N1CCC[C@H]1C(=O)N[C@@H](CO)C(=O)N[C@@H](CO)C(=O)NCC(=O)N[C@@H](C)C(=O)N1CCC[C@H]1C(=O)N1CCC[C@H]1C(=O)N1CCC[C@H]1C(=O)N[C@@H](CO)C(N)=O)[C@@H](C)CC)[C@@H](C)CC) [Peptide 29] | 7.99 |
| Y-Aib-EGT-αMeF(2F)-TSD-4Pal-SI-αMeL-LD-Orn-K((2-[2-(2-Amino-ethoxy)-ethoxy]-acetyl)2-(γGlu)-CO—(CH2)16—CO2H)AQ-Aib-EFI-(D-Glu)-αMeY-LIEGG-NH2 (YXEGTXTSDXSIXLDXKAQXEFIXXLIEGG; Aib, αMeF(2F), 4Pal, αMeL, Orn, αMeY, D-Glu; C18 diacid lipidation; amide; (2)..(2) Xaa at position 2 is Aib; (6)..(6) Xaa at position 6 is alpha-methyl-Phe(2F); (10)..(10) Xaa at position 10 is 4Pal; (13)..(13) Xaa at position 13 is alpha-methyl-Leu; (16)..(16) Xaa at position 13 is Orn; MOD_RES (17)..(17) Lys at position 17 is chemically modified by conjugation of the epsilon-amino group of the Lys side chain with (2-[2-(2-amino-ethoxy)-ethoxy]-acetyl)2-(gamma-Glu)-CO-) [Peptide 265] | 2.99 |
| Y-Aib-EGT-αMeF(2F)-TSDYSI-αMeL-LD-Dap-K((2-[2-(2-Amino-ethoxy)-ethoxy]-acetyl)2-(γGlu)-CO—(CH2)18—CO2H)AQ-Aib-EFI-(D-Glu)-YLIEGGPSSGAPPPS-NH2 (YXEGTXTSDYSIXLDXKAQXEFIXYLIEGGPSSGAPPPS; Aib, αMeF(2F), αMeL, Dap, D-Glu; lipidated K; amide; (2)..(2) Xaa at position 2 is Aib; (6)..(6) Xaa at position 6 is alpha-methyl-Phe(2F); (13)..(13) Xaa at position 13 is alpha-methyl-Leu; (16)..(16) Xaa at position 16 is Dap; MOD_RES (17)..(17) Lys at position 17 is chemically modified by conjugation of the epsilon-amino group of the Lys side chain with (2-[2-(2-amino-ethoxy)-ethoxy]-acetyl)2-(gamma-Glu)-CO-(CH2)18- CO2H; (20)..(20) Xaa at positi) [Peptide 218] | 4.34 |
| Y-Aib-EGT-αMeF(2F)-TSDYSILLDEK((2-[2-(2-Amino-ethoxy)-ethoxy]-acetyl)2-(γGlu)-CO—(CH2)18—CO2H)AQ-Aib-EFI-(D-Glu)-YLIEGGPSSGAPPPS-NH2 (YXEGTXTSDYSILLDEKAQXEFIXYLIEGGPSSGAPPPS; Aib, αMeF(2F), D-Glu; lipidated K; amide; (2)..(2) Xaa at position 2 is Aib; (6)..(6) Xaa at position 6 is alpha-methyl-Phe(2F); MOD_RES (17)..(17) Lys at position 17 is chemically modified by conjugation of the epsilon-amino group of the Lys side chain with (2-[2-(2-amino-ethoxy)-ethoxy]-acetyl)2-(gamma-Glu)-CO-(CH2)18- CO2H; (20)..(20) Xaa at position 20 is Aib; (24)..(24) Xaa at position 24 is D-Glu; MOD_RES (39)..(39) Ser at position) [Peptide 226] | 3.42 |
| Y-Aib-EGTFTSDYSI-αMeL-LDEK((2-[2-(2-Amino-ethoxy)-ethoxy]-acetyl)2-(γGlu)-CO—(CH2)18—CO2H)AQ-Aib-AFIEYLIEGG-NH2 (YXEGTFTSDYSIXLDEKAQXAFIEYLIEGG; Aib, αMeL; K lipidated C20 diacid-γGlu-AEEA2; C-terminal amide; (2)..(2) Xaa at position 2 is Aib; (13)..(13) Xaa at position 13 is alpha-methyl-Leu; MOD_RES (17)..(17) Lys at position 17 is chemically modified by conjugation of the epsilon-amino group of the Lys side chain with (2-[2-(2-amino-ethoxy)-ethoxy]-acetyl)2-(gamma-Glu)-CO-(CH2)18- CO2H; (20)..(20) Xaa at position 20 is Aib; MOD_RES (30)..(30) Gly at position 30 is amidated) [Peptide 63] | 4.09 |
| Y-Aib-EGT-αMeF(2F)-TSDYSI-αMeL-LDEK((2-[2-(2-Amino-ethoxy)-ethoxy]-acetyl)2-(γGlu)-CO—(CH2)18—CO2H)AQ-Aib-EFIAYLIEGGPSSGAPPPS-NH2 (YXEGTXTSDYSIXLDEKAQXEFIAYLIEGGPSSGAPPPS; Aib, αMeF(2F), αMeL; acylated lysine C20 diacid; amide; (2)..(2) Xaa at position 2 is Aib; (6)..(6) Xaa at position 6 is alpha-methyl-Phe(2F); (13)..(13) Xaa at position 13 is alpha-methyl-Leu; MOD_RES (17)..(17) Lys at position 17 is chemically modified by conjugation of the epsilon-amino group of the Lys side chain with (2-[2-(2-amino-ethoxy)-ethoxy]-acetyl)2-(gamma-Glu)-CO-(CH2)18- CO2H; (20)..(20) Xaa at position 20 is Aib; MOD_RES (39)..(39) Ser a) [Peptide 148] | 3.14 |
| Y-Aib-EGT-αMeF(2F)-TSDYSI-Nle-LD-Orn-K((2-[2-(2-Amino-ethoxy)-ethoxy]-acetyl)2-(γGlu)-CO—(CH2)16—CO2H)AQ-Aib-EFI-(D-Glu)-YLIEGGPSSGAPPPS-NH2 (YXEGTXTSDYSIXLDXKAQXEFIXYLIEGGPSSGAPPPS; Aib, Nle, Orn, αMeF(2F), lipidated Lys, D-Glu, amide; (2)..(2) Xaa at position 2 is Aib; (6)..(6) Xaa at position 6 is alpha-methyl-Phe(2F); (13)..(13) Xaa at position 13 is Nle; (16)..(16) Xaa at position 16 is Orn; MOD_RES (17)..(17) Lys at position 17 is chemically modified by conjugation of the epsilon-amino group of the Lys side chain with (2-[2-(2-amino-ethoxy)-ethoxy]-acetyl)2-(gamma-Glu)-CO-(CH2)16- CO2H; (20)..(20) Xaa at position 20 is Aib;) [Peptide 249] | 4.94 |
| Y-Aib-EGTFTSDYSILLDKIAQ-Aib-AFIEYLIK((2-[2-(2-Amino-ethoxy)-ethoxy]-acetyl)2-(γGlu)-CO—(CH2)18—CO2H)GG-NH2 (Y[Aib]EGTFTSDYSILLDKIAQ[Aib]AFIEYLIK([AEEA-AEEA-γGlu-C20 diacid])GG-NH2; N-terminus assumed; SMILES CC[C@H](C)[C@H](NC(=O)[C@H](CCCCN)NC(=O)[C@H](CC(=O)O)NC(=O)[C@H](CC(C)C)NC(=O)[C@H](CC(C)C)NC(=O)[C@@H](NC(=O)[C@H](CO)NC(=O)[C@H](Cc1ccc(O)cc1)NC(=O)[C@H](CC(=O)O)NC(=O)[C@H](CO)NC(=O)[C@@H](NC(=O)[C@H](Cc1ccccc1)NC(=O)[C@@H](NC(=O)CNC(=O)[C@H](CCC(=O)O)NC(=O)C(C)(C)NC(=O)[C@@H](N)Cc1ccc(O)cc1)[C@@H](C)O)[C@@H](C)O)[C@@H](C)CC)C(=O)N[C@@H](C)C(=O)N[C@@H](CCC(N)=O)C(=O)NC(C)(C)C(=O)N[C@@H](C)C(=O)N[C@@H](Cc1ccccc1)C(=O)N[C@H](C(=O)N[C@@H](CCC(=O)O)C(=O)N[C@@H](Cc1ccc(O)cc1)C(=O)N[C@@H](CC(C)C)C(=O)N[C@H](C(=O)N[C@@H](CCCCNC(=O)COCCOCCNC(=O)COCCOCCNC(=O)CC[C@H](NC(=O)CCCCCCCCCCCCCCCCCCC(=O)O)C(=O)O)C(=O)NCC(=O)NCC(N)=O)[C@@H](C)CC)[C@@H](C)CC) [Peptide 73] | 7.73 |

Reference: patent publication US12295987B2, “Method of using a GIP/GLP1 co-agonist for diabetes” (Eli Lilly and Company, priority 2018, dated 2025)
